From patent US20170298146A1 (MODIQUEST B V, published 2017)
Non-standard residues stand in square brackets, D forms with d. No end group written: not given here. Cit = NC(=O)NCCC[C@H](N)C(=O)O

What was measured:
CFC-1 [1] = molecular target: T1, CFC-1; assay: peptide ELISA, 0.000128 ug/well
T1 construct: Positive control for anti-citrulline reactivity; also called cfc1 XG
Experimental: (§1) Biotin and citrulline-containing peptides derived from histone 2A were immobilized on NEUTRAVIDIN®-coated 96-well ELISA plates (0.3 μg/well). CFC-1 and CFC-0 were coated at the same concentration and served as positive and negative controls respectively for specific anti-citrulline reactivity and as coating controls. Non-coated wells were used to test for aspecific binding of the antibodies. […] Detection of bound anti-citrulline antibodies was performed by incubating the wells with rabbit-anti-human-HRP (1:2000) for one hour at RT followed by incubation with TMB substrate. The resulting OD (y-axis) is a measure for antibody binding.
(§2) Ninety-six-well ELISA plates were coated with NEUTRAVIDIN® (0.1 μg/well) by overnight incubation at 4° C. Wells were washed five times with PBS-TWEEN®-20 (PBS-T) and blocked by a one-hour incubation with PBS-T+1% Bovine serum albumin (BSA) at room temperature (RT). After five more washes with PBS-T, wells were incubated for one hour at RT with histone-derived citrulline and biotin-containing peptides (0.3 μg/well). […] Wells were washed five times with PBS-T and incubated with rabbit-anti-human-HRP (1:2000) for one hour at RT followed by five washes with PBS-T and three wash steps with PBS. Wells were incubated for five minutes with TMB substrate before stopping the reaction with 2 M H₂SO₄. Optical density was measured by 450 nm and is a measure for the affinity of the antibodies used.

[2] = molecular target: T2, Histone 2A citrulline-containing peptide 1 (human, also: biotin label); assay: peptide ELISA, 0.000128 ug/well
T2 construct: also called AAASGXGKQGGK
T2 peptide: AAASG[Cit]GKQGGK
Experimental: as §1, §2

msVim XS/XL = molecular target: T3, msVim XS/XL (mouse, also: biotin label); assay: peptide ELISA, 0.0023 ug/well
T3 construct: also called mouse vimentin peptide
T3 peptide: YVT[Cit]SSAV[Cit]L[Cit]SSVP
Experimental: as §1, with “fibrinogen and vimentin” for “histone 2A”
(§3) Biotin-labeled and citrulline-containing fibrinogen and vimentin peptides (Table 5) were also tested for reactivity with the therapeutic antibodies. Peptides were coated on 96-well NEUTRAVIDIN®-ELISA plates.

msFibα XG = molecular target: T4, msFibα XG (mouse, X at position 8 is citrulline; biotin label); assay: peptide ELISA, 0.0023 ug/well
T4 peptide: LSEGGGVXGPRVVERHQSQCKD
Experimental: as §1, with “fibrinogen and vimentin” for “histone 2A”
as §3

huFibα XG = molecular target: T5, huFibα XG (human, X at position 8 is citrulline; biotin label); assay: peptide ELISA, 0.0023 ug/well
T5 peptide: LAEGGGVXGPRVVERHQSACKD
Experimental: as §1, with “fibrinogen and vimentin” for “histone 2A”
as §3

msFibβ XG = molecular target: T6, msFibβ XG (mouse, also: biotin label); assay: peptide ELISA, 0.0023 ug/well
T6 peptide: EPTDSLDA[Cit]GHRPVDRR
Experimental: as §1, with “fibrinogen and vimentin” for “histone 2A”
as §3

[3] = molecular target: T7, Histone 2A citrulline-containing peptide 11 (human, also: biotin label); assay: peptide ELISA, 0.0023 ug/well
T7 peptide: LQLAI[Cit]NDEELN
Experimental: as §1, §2

CFC-1 [4] = molecular target: T1, CFC-1; assay: peptide ELISA, 0.0023 ug/well
Experimental: as §1, §2

[5] = molecular target: T8, Histone 2A citrulline-containing peptide 5 (human, also: biotin label); assay: peptide ELISA, 0.0023 ug/well
T8 peptide: VGRVH[Cit]LLRKGN
Experimental: as §1, §2

[6] = molecular target: T2, Histone 2A citrulline-containing …; assay: peptide ELISA, 0.0023 ug/well
Experimental: as §1, §2

[7] = molecular target: T9, Histone 2A citrulline-containing peptide 7 (human, also: biotin label); assay: peptide ELISA, 0.0023 ug/well
T9 peptide: GNYSE[Cit]VGAGAP
Experimental: as §1, §2

[8] = molecular target: T10, Histone 2A citrulline-containing peptide 10 (human, also: biotin label); assay: peptide ELISA, 0.0023 ug/well
T10 peptide: TRIIP[Cit]HLQLAI
Experimental: as §1, §2

[9] = molecular target: T11, Histone 2A citrulline-containing peptide 12 (human, also: biotin label); assay: peptide ELISA, 0.0023 ug/well
T11 peptide: NKLLG[Cit]VTIAQG
Experimental: as §1, §2

[10] = molecular target: T12, Histone 2A citrulline-containing peptide 8 (human, also: biotin label); assay: peptide ELISA, 0.0023 ug/well
T12 peptide: AGNAA[Cit]DNKKTR
Experimental: as §1, §2

[11] = molecular target: T13, Histone 2A citrulline-containing peptide 4 (human, also: biotin label); assay: peptide ELISA, 0.0023 ug/well
T13 peptide: QFPVG[Cit]VHRLLR
Experimental: as §1, §2

[12] = molecular target: T7, Histone 2A citrulline-containing …; assay: peptide ELISA, 0.08 ug/well
Experimental: as §1, §2

CFC-1 [13] = molecular target: T1, CFC-1; assay: peptide ELISA, 0.08 ug/well
Experimental: as §1, §2

[14] = molecular target: T8, Histone 2A citrulline-containing …; assay: peptide ELISA, 0.08 ug/well
Experimental: as §1, §2

[15] = molecular target: T2, Histone 2A citrulline-containing …; assay: peptide ELISA, 0.08 ug/well
Experimental: as §1, §2

[16] = molecular target: T11, Histone 2A citrulline-containing …; assay: peptide ELISA, 0.08 ug/well
Experimental: as §1, §2

[17] = molecular target: T14, Histone 2A citrulline-containing peptide 2 (human, also: biotin label); assay: peptide ELISA, 0.08 ug/well
T14 peptide: AKAKS[Cit]SSRAGL
Experimental: as §1, §2

[18] = molecular target: T12, Histone 2A citrulline-containing …; assay: peptide ELISA, 0.08 ug/well
Experimental: as §1, §2

[19] = molecular target: T15, Histone 2A citrulline-containing peptide 3 (human, also: biotin label); assay: peptide ELISA, 0.08 ug/well
T15 peptide: KSRSS[Cit]AGLQFP
Experimental: as §1, §2

[20] = molecular target: T16, Histone 2A citrulline-containing peptide 9 (human, also: biotin label); assay: peptide ELISA, 0.08 ug/well
T16 peptide: DNKKT[Cit]IIPRHL
Experimental: as §1, §2

[21] = molecular target: T17, Histone 2A citrulline-containing peptide 6 (human, also: biotin label); assay: peptide ELISA, 0.08 ug/well
T17 peptide: VHRLL[Cit]KGNYSE
Experimental: as §1, §2

[22] = molecular target: T13, Histone 2A citrulline-containing …; assay: peptide ELISA, 0.08 ug/well
Experimental: as §1, §2

B1: RhmAb2.102 (antibody, human IgG1, lambda)
heavy: not shown
light: QSVLTQPPSMSAAPGQKVTISCSGSSSNIGNNYVSWYQQVPGTAPKLLIYDDNKRPSGIPGRFSGSKSATSATLGITGLQAGDEADYYCGSWDDNLSVVLFGGGTKLTVLGQPKAAPSVTLFPPSSEELQANKATLVCLISDFYPGAVTVAWKADSSPVKAGVETTTPSKQSNNKYAASSYLSLTPEQWKSHRSYSCQVTHEGSTVEKTVAPTECS
notes: Human IgG1 lambda; also called Rhm2.102
OD (CFC-1 [1]): 0.749 OD | OD [2]: 0.128 OD | OD (msVim XS/XL): 0.142 OD | OD (msFibα XG): 0.125 OD | OD (huFibα XG): 0.125 OD | OD (msFibβ XG): 0.12 OD | OD [3]: 0.057 OD | OD (CFC-1 [4]): 0.916 OD | OD [5]: 0.063 OD | OD [6]: 0.3 OD | OD [7]: 0.064 OD | OD [8]: 0.068 OD | OD [9]: 0.059 OD | OD [10]: 0.06 OD | OD [11]: 0.078 OD | OD [12]: 0.064 OD | OD (CFC-1 [13]): 2.66 OD | OD [14]: 0.066 OD | OD [15]: 2.04 OD | OD [16]: 0.06 OD | OD [17]: 0.086 OD | OD [18]: 0.06 OD | OD [19]: 0.091 OD | OD [20]: 0.06 OD | OD [21]: 0.123 OD | OD [22]: 0.192 OD
